PMC3156817 (Nature Communications, 2011)

B1: ICSM-18 (antibody, V domains shown)
VH: EVQLQQSGPELVKPGSSVKISCKASRNTFTDYNLDWVKQSHGKTLEWIGNVYPNNGVTGYNQKFRGKATLTVDKSSSTAYMELHSLTSEDSAVYYCALYYYDVSYWGQGTLVTVSS
VL: QIVLTQSPAIMSASPGEKVTMTCSASSSVSYMHWYQQKSGTSPKRWIYDTSKLASGVPARFSGSGSGTSYSLTISSMEAEDAATYFCHQWRSNPYTFGGGTKLEIK

What was measured:
huPrP23-231 (human) = huPrP23-231 (human) (UniProt P04156); experiment: DELFIA
huPrP23-231 = huPrP23-231 (Homo sapiens, UniProt P04156); experiment: DELFIA

| Molecule | Kd (huPrP23-231 (human)) [nM] | Kd (huPrP23-231) [nM] | Ki (huPrP23-231) [nM] |
| --- | --- | --- | --- |
| Aβ-derived diffusible ligands (ADDLs) prepared from Aβ1-42 (from UniProt P05067) (peptide) | 100 | – | – |
| bADDLs prepared from biotinylated Aβ1-42 (bAβ1-42) (from UniProt P05067) (peptide) | 82 | – | – |
| B1 | – | ~10 | ~20 |
